These results are taken from the MegaScale stability set (Tsuboyama et al. 2023).

B1: 2M8U (parent)
chain: TKAQVIEAFKVFDRDGNGYVTVDYLRKVLNELGDMMPADEIEEMIYEADPQNSGYVQYETFVGMLFL

The variants in the series derive from B1. Nature of the series: folding stability dG (cDNA display proteolysis); higher = more stable. Particulars: PBS, room temperature.
Regarding TKAQVIEAFKVFDRDGNGYVTVDYLRKVLNELGDMMPMDEIEEMIYEADPQNSGYVQYETFVGMLFL [A38M], the “folding stability dG” value stood at 3.76 kcal/mol.

Turning to TKAQVIEAFKVFDRDGNGYVTVDYLRKVLNELGDMMPYDEIEEMIYEADPQNSGYVQYETFVGMLFL [A38Y], the “folding stability dG” value came to 3.5 kcal/mol.

Take TKAQVIEAFKVFDRDGNGYVTVDYLRKVLHELGDMMPADEIEEMIYEADPQNSGYVQYETFVGMLFL [N30H]: the “folding stability dG” value turned out to be 3.52 kcal/mol.

On to TKAQVIEAFKVFDRDGNGYVTVDYLRKVLVELGDMMPADEIEEMIYEADPQNSGYVQYETFVGMLFL [N30V], for which the “folding stability dG” value was 3.38 kcal/mol.

Take TKAQVIEAFKVFDRDGNGYVTVDYLRKVLNELGDMMPADEIEEMIYEADPQLSGYVQYETFVGMLFL [N52L]: the “folding stability dG” value was 3.36 kcal/mol.

As for TKAQVIEAFKVFDRDGNGYVTVDYLRKVLNELGDMMPADEIEEMIYEADPQSSGYVQYETFVGMLFL [N52S], the “folding stability dG” value stood at 3.57 kcal/mol.

Consider TKAQVIEAFKVFDRDGNGYVTVDYLRKVLNELGDMMPADEIEEMIYEADPQVSGYVQYETFVGMLFL [N52V], for which the “folding stability dG” value came out at 3.26 kcal/mol.

Consider TKAQVIEAFKVFDRDGNGYVTVDYLRKVLNELGDMMPADEIEEMIYEADPQWSGYVQYETFVGMLFL [N52W], for which the “folding stability dG” value stood at 3.1 kcal/mol.

On to TKAQVIKAFKVFDRDGNGYVTVDYLRKVLNELGDMMPADEIEEMIYEADPQNSGYVQYETFVGMLFL [E7K], for which the “folding stability dG” value came to 3.1 kcal/mol.

TKAQVIEAFKVFDRDGNGYVTVDYLRKVLNELGDMMPADEIEEMIYEADPQNSGYVQYETFLGMLFL [V62L]: the “folding stability dG” value came out at 2.76 kcal/mol.

As for TKAQVIEAFKVFDRDGNQYVTVDYLRKVLNELGDMMPADEIEEMIYEADPQNSGYVQYETFVGMLFL [G18Q], the “folding stability dG” value worked out at 2.3 kcal/mol.

Regarding TKAQVIEAFKVFDRDGNYYVTVDYLRKVLNELGDMMPADEIEEMIYEADPQNSGYVQYETFVGMLFL [G18Y], the “folding stability dG” value was found to be 2.36 kcal/mol.

In the case of TKAQVIEAFKVFDRDGNGYVTVDYLRKCLNELGDMMPADEIEEMIYEADPQNSGYVQYETFVGMLFL [V28C], the “folding stability dG” value was found to be 2.6 kcal/mol.

Regarding TKAQVIEAFKVFDRDGNGYVTVDYLRKDLNELGDMMPADEIEEMIYEADPQNSGYVQYETFVGMLFL [V28D], the “folding stability dG” value was 0.754 kcal/mol.

Turning to TKAQVIEAFKVFDRDGNGYVTVDYLRKVLNECGDMMPADEIEEMIYEADPQNSGYVQYETFVGMLFL [L32C], the “folding stability dG” value was found to be 2.76 kcal/mol.

As to TKAQVIEAFKVFDRDGNGYVTVDYLRKVLNEDGDMMPADEIEEMIYEADPQNSGYVQYETFVGMLFL [L32D], the “folding stability dG” value is 1.84 kcal/mol.

In the case of TKAQVIEAFKVFDRDGNGYVTVDYLRKVLNETGDMMPADEIEEMIYEADPQNSGYVQYETFVGMLFL [L32T], the “folding stability dG” value came out at 2.55 kcal/mol.

With TKAQVIEAFKVFDRDGNGYVTVDYLRKVLNELGDMMPADEIEEMIYEADIQNSGYVQYETFVGMLFL [P50I], the “folding stability dG” value turned out to be 3.23 kcal/mol.

Turning to TKAQVIEAFKVFDRDGNGYVTVDYLRKVLNELGDMMPADEIEEMNYEADPQNSGYVQYETFVGMLFL [I45N], the “folding stability dG” value came to 2.17 kcal/mol.

On to TKAQVIEAFKVFDRDGNGYVTVDYLRKVLNELGCMMPADEIEEMIYEADPQNSGYVQYETFVGMLFL [D34C], for which the “folding stability dG” value worked out at 4.32 kcal/mol.

For the variant TKAQVIEAFKVFDRDGNGYVTVDYLRKVLNELGLMMPADEIEEMIYEADPQNSGYVQYETFVGMLFL [D34L], the “folding stability dG” value stood at 4.44 kcal/mol.

Consider TKAQVIEAFKVFDRDGNGYVTVDYLRKVLNELGVMMPADEIEEMIYEADPQNSGYVQYETFVGMLFL [D34V], for which the “folding stability dG” value amounted to 4.2 kcal/mol.

As for TKAQVIEAFKVFDRDGNGYVTVDYLRKVLNELGHMMPADEIEEMIYEADPQNSGYVQYETFVGMLFL [D34H], the “folding stability dG” value turned out to be 3.53 kcal/mol.

For the variant TKAQVIEAFKVFDRDGNGYVTVDYLRKVLNELGDMMPADEIEEMIYEADPQNSGYVQYETFVGMLFF [L67F], the “folding stability dG” value stood at 3.22 kcal/mol.

Turning to TKAQVIEAFKVFDRDGNGYVTVDYLRKVLNELGDMPPADEIEEMIYEADPQNSGYVQYETFVGMLFL [M36P], the “folding stability dG” value stood at 3.63 kcal/mol.

With TKAQVIEAFKVFDRDGNGYITVDYLRKVLNELGDMMPADEIEEMIYEADPQNSGYVQYETFVGMLFL [V20I], the “folding stability dG” value came to 3.62 kcal/mol.

In the case of TKAQVIEAFKVFDRDGNGYPTVDYLRKVLNELGDMMPADEIEEMIYEADPQNSGYVQYETFVGMLFL [V20P], the “folding stability dG” value amounted to 2.1 kcal/mol.

In the case of TKAQRIEAFKVFDRDGNGYVTVDYLRKVLNELGDMMPADEIEEMIYEADPQNSGYVQYETFVGMLFL [V5R], the “folding stability dG” value amounted to 1.91 kcal/mol.

Take TKAQTIEAFKVFDRDGNGYVTVDYLRKVLNELGDMMPADEIEEMIYEADPQNSGYVQYETFVGMLFL [V5T]: the “folding stability dG” value was 2.49 kcal/mol.

For the variant TKAQVIEAFKVFDRDGNGYVTVDALRKVLNELGDMMPADEIEEMIYEADPQNSGYVQYETFVGMLFL [Y24A], the “folding stability dG” value came to 4.19 kcal/mol.

Regarding TKAQVIEANKVFDRDGNGYVTVDYLRKVLNELGDMMPADEIEEMIYEADPQNSGYVQYETFVGMLFL [F9N], the “folding stability dG” value came out at 2.22 kcal/mol.

With TKAQVIEAEKVFDRDGNGYVTVDYLRKVLNELGDMMPADEIEEMIYEADPQNSGYVQYETFVGMLFL [F9E], the “folding stability dG” value is 1.96 kcal/mol.

On to TKAQVIEAFKVFDRDTNGYVTVDYLRKVLNELGDMMPADEIEEMIYEADPQNSGYVQYETFVGMLFL [G16T], for which the “folding stability dG” value worked out at 2.43 kcal/mol.

For TKAQVIEAFKVFDRDSNGYVTVDYLRKVLNELGDMMPADEIEEMIYEADPQNSGYVQYETFVGMLFL [G16S], the “folding stability dG” value is 3.03 kcal/mol.

Consider TKAQVIEAFKVFDRDVNGYVTVDYLRKVLNELGDMMPADEIEEMIYEADPQNSGYVQYETFVGMLFL [G16V], for which the “folding stability dG” value was 2.42 kcal/mol.

Regarding TKAQVIEAFKVFDRDYNGYVTVDYLRKVLNELGDMMPADEIEEMIYEADPQNSGYVQYETFVGMLFL [G16Y], the “folding stability dG” value was 2.49 kcal/mol.

Turning to TKAQVIEAFKVFDRDGTGYVTVDYLRKVLNELGDMMPADEIEEMIYEADPQNSGYVQYETFVGMLFL [N17T], the “folding stability dG” value came out at 3.95 kcal/mol.

As for TKAQVIEAFKVFDRDGSGYVTVDYLRKVLNELGDMMPADEIEEMIYEADPQNSGYVQYETFVGMLFL [N17S], the “folding stability dG” value worked out at 4.02 kcal/mol.

In the case of TKAQVIEAFKVFDRDGLGYVTVDYLRKVLNELGDMMPADEIEEMIYEADPQNSGYVQYETFVGMLFL [N17L], the “folding stability dG” value is 3.39 kcal/mol.

On to TKAQVIEAFKVFDRDGNGYVTVDYLRKVLNELGDMMPADEIEEMIIEADPQNSGYVQYETFVGMLFL [Y46I], for which the “folding stability dG” value is 3.47 kcal/mol.
